Test results as given in PMC8881610.

Target: human GLP-1R, wild-type, on cells (human) (UniProt P43220)
Sequence (P43220 24-463): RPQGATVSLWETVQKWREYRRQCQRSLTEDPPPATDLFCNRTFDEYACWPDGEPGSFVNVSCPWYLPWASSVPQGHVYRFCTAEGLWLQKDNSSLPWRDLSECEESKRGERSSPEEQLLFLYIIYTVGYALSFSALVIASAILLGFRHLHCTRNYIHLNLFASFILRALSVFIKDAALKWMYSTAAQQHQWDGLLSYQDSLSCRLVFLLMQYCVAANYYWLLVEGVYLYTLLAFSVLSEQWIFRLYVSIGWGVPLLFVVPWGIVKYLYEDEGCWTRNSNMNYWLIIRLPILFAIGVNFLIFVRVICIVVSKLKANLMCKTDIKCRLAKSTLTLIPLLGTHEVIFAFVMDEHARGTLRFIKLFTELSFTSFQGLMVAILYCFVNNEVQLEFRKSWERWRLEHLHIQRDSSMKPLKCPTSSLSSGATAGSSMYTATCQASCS

**Q.** With non-acylated tirzepatide (peptide) as the substance, how does the cAMP response, EC50, 0.1% BSA read?
**A.** 4.66 pM

**Q.** And the other?
**A.** 0.9 pM

**Q.** tirzepatide (peptide) was tested. Which other did it give?
**A.** 3.05 pM
